# Tested on: HEK293 cells
# Type: cell-based, human
# Conditions: circular RNA encoding Gluc with the listed IRES (UTR truncated to 675 nt) transfected into HEK293 cells; supernatant after 24 hours
row,Molecule,Expression (luminescence from secreted Gluc protein)
1,"Lesavirus 1 (nucleic acid, lipid formulation; source: /note=""Description of Unknown: Lesavirus 1 sequence"") DNA: GTAACTAATAAGCAAGTTTTACTGCCTGCAAACTGCTTCAATGGGACCACCGCTTCGGCGACCCCTTTGTTGAGTTTGTATGTTTTTAAGTAATCTTTGCAACCATACGATTATTTTAGCCGCCTCTCTATAATGATCTTGTTATAGTGGGACGTGAAACATTGGTTTTTCTCACACACGTCCGGTCACCCGGGCGTGTGTTCTTCCGTAAGTCCTATCCACATACCATCGTGGGTAGGCCAGCATGTTTGCACAGGCTGTGACAGTGTGGGTGGGCTTTCCACCTCTCAACAACACACTGAATTGCAATGCACTCACGGAGGAAATGACAATTTGGTTATAGTTTTGAACTGTGCTAGTAATTTCTTTCACATTAAGCCATGTTGCCTGCGGAATCACATGTGGTAACACATGCCTCAGGGCCCAAAAGGCACGGGTTAGCAGCCCCTTCATGGTGTGTTAGAAGTGAAAACACATAGTATGAGCTATAATATCTTTGTTGTCTTCTCTGTAGTGTACCCCGCCAAATGTAAGGATGCCCAGCAGGTACCCATTTTATGGATCTGAGCTGGGGATTGATAGTGTATCTATAAATGCACTGATCAATTTAAAAAGCGTCTAAGTTTGGCACAAACACTGGGGACAGTGTTTTTCCTTTATTCTTTTATTTGATTA",6.37E+06
2,"Jingmen picorna-like virus (nucleic acid, source: /note=""Description of Unknown: Jingmen picorna-like virus sequence"") DNA: TGTGTTTTTGTCAAGATAATTGTTCTGTGATTAACAGTGATTGTGGTTCGTGTAATGCGACGCAGTCAAATGCTAGTTTTGATGAAGTGTATGAGAGAGTGGAAAACTTATCTCATAAGAAGATTGAAGAGTGTGTAGATCAGGCTATTGATCGAGCTTCTAAGCTTCGTGATTACAAGCTTAATGTTCACAATGGCTCCCGACGGGAATCATCTGATCCTCTCTTTATTTCGCCCCATTCGTTGTTATCGCTTGGGGTATCTAAGTTTGTTGCGTTTGAGCAGCATCACAGTTTCGCTTCAGTTGAGTCTCTGAAGTTGCTTGCTCTGTCT",9.32E+04
3,"Miniopterus schreibersii picornavirus 1 (nucleic acid, lipid formulation; source: /note=""Description of Unknown: Miniopterus schreibersii picornavirus 1 sequence"") DNA: GTTGTCGACCCGTTGCTTGGTTTAAGCATGAGGTGGATTCCCCCGATTATGTCTACCCGTTACTATGGCGGGCGGTCGTTTCAGGGTGTTTCTACTGAGGACTGCACCAAGTCTTTATCTTTTATTCTCAGATCTCCGGCTGTTTGACGCTTGTAGGACAGCAGGACTATTTTCTCTTAATCTTTTTCTACCCACTAGGGTCCTATCCTAGTGGAGGGAGGGTGCCACCCCTTCTCTCTTTAGAGAGTGCGCCTGGCGGTCTTTCCGTCTCTGGAAAAAGGAGCACATGGCATGCTACAATTGGCACAAGAAAACAAGCTTTGCGGATTCTTTCTTTGTACTAGAGGAAGCTGTAGCGACCCTGTATGGCGAGCGGACTCCCCTCTCGGCGACGAGAGCCTCTCGGGCCAAAAGCCAAGTGTTAATAGCACCCATACAGGCGGCAGTACCCCACTGCCCTTTCTCAACATACAATGACTGATGAACCACTGTTGGTTTTTCTGACACCTTTGTAGTAGGATTCCAAGGAATGTCCTGAAGGTACCCTGTTAGCTTACGCGCAGGATCTGATCAGGAGTCTCTTTACAGTGCTGTACACTGTGCAAGGGATTAAAAATTGTTTGAGGAATCCCCGAGATAGTGGTCTATCTCTTCCTATTTTGTTTTACAGACACG",6.05E+06
